Assay results taken from the supplement of paper PMC12042874.
± gives the uncertainty stated by the source.

Assay: amyloid nucleation score (Sup35N fusion, yeast selection) (log enrichment); library NNK3; higher = more nucleation; inactive = no reads after selection
In short: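 Plasmid inserts were Illumina-sequenced at input and output from psi-negative yeast expressing Sup35N fused to peptides of 20 random codons. The yeast were induced with 100 μM copper sulfate for 24 hours and grown 7 days at 30°C on medium lacking adenine and uracil, and sequences with under 100 input reads were excluded. Nucleation score is the DiMSum log enrichment of output over input reads, centred on the mode score of non-aggregating sequences.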

Substance | amyloid nucleation score
GTEVILSLVSESTGKRAARL | inactive
FTGKRSALGCIGVCILF | -0.598 ± 1.2
SPLSRTFTPTYAGDMLLNSS | inactive
FLMKLWM | 1.66 ± 0.08
FTCFNGQLVMA | inactive
HLVCYLWE | 1.71 ± 0.093
LPAMIGIWCILTH | inactive
YMLLSVDILSYMPMTVVAEQ | inactive
IPVGIRSRFVLYSCGMTGVK | inactive
SNPLYGSDMQVHYF | 1.16 ± 0.14
RGPVNCYYRISPRRPRHVSE | inactive
GDFSSCL | inactive
ELLCSYTYKIGFQWFC | inactive
GLVCWTG | inactive
LSFPYMMTIFCATRFTDPLM | inactive
HHHSATLYFTFMSVTE | inactive
HYEVRGVLFAMPPCGNI | inactive
QRNMVSEGATRCLSTDFPCL | inactive
NHNPVCGVDNRMKVVRLYYV | inactive
RIDTRNDRSNYR | inactive
FCIEPR | inactive
AYLLSIANCFSAVYLHPSDS | 0.216 ± 0.56
RYMFWQWRGEL | 0.958 ± 0.17

Substance | amyloid nucleation score
AVLHNMGFSHILAQLV | inactive
VCWSYNSNL | inactive
FSTFRLSRLCHRDRRSHARQ | inactive
YMHGVWRWVVYRIFLYGRQA | inactive
RNLVWA | inactive
CIGFGCLLIVHLPIYACPWC | inactive
LHCTLSNSLSYLHDIQQLLH | inactive
ANTFVSSWFVTTNRQKTERG | inactive
FFWECYRQINCSINW | inactive
SYKSLNCALFLQ | 0.574 ± 0.24
TFSDVGLFYLTQYDKVPFDL | inactive
LRVYYYNMILDDFCVFVLEG | 1.48 ± 0.13
MPFIPHLDGS | inactive
LGFESCVHRGKIKAVVMTST | inactive
RKKLEGVFVRLFQFANPIVG | inactive
VDSLFSGKNYELECKFDSWI | inactive
IPRVDLLLCLDSIGLGRSLN | inactive
QRNNFLLTMVTCFDLKL | inactive
DCCGLVAYNLVFRICGACLG | inactive
VFAMLLDMFDCARQWPAIPL | inactive
YFSISLLTSK | inactive
SNDVCVC | inactive
LWIDLWFILYWPGSIDCGEC | -0.288 ± 0.45

Substance | amyloid nucleation score
RLARADNILLGRNSVSSSVK | inactive
WDLLTKLHVKIKFLDRGMMS | inactive
SRYMARTSDPARYVTPVSNT | inactive
IYIVTYICPVSSRLKGLLCQ | inactive
YSCNKCVDEMRVRRGIERGV | inactive
CYHAFRCSGLARACVENINW | inactive
GIRVHGNFYMNSGSSTGG | 1.49 ± 0.073
NSTFRFTVTRFCIAPSEYIG | 0.509 ± 0.25
KKYVVFNGCSPYM | inactive
VGTIVFVFSFASWPRVGYIR | inactive
SREQIVCQVRSITLAYKNSV | inactive
KICRIYAMGVLLSDTVSTMS | inactive
WVLDQRNSLSKCKLG | inactive
GCFYIFRIY | -0.222 ± 1.3
FSLFFLCIFFDNRTKFMCLA | inactive
QYVCVRS | inactive
RRCPYIRESIYKFSLAKCSF | 0.014 ± 0.31
SFEYHNWNDM | 0.361 ± 0.18
RSSSIYYICFQTFTRCNYPV | inactive
YAGFCPRGRSPKRG | inactive
ADPSMVNVICHGLSDRGSY | inactive
PFSRYPVGCLGVSPYRVISS | inactive
FGSGRVSQLVRYDSFLEEFL | inactive

Substance | amyloid nucleation score
MSVDGLHCRWPSWHVKILLD | inactive
RRARFFVHAQVRWVCFWAMK | inactive
GCWECPTYQMLCTRVCLTWT | inactive
FYMASMCCWF | inactive
GIELAVFYCHYIRVGSDVY | inactive
ANCPMHRLTAGNSLCLWTW | 1.69 ± 0.086
TKDIMHTSSLVRWTHREAWC | inactive
SFHSPYL | inactive
YCFSWNHR | 0.116 ± 0.66
GCGRCFL | inactive
WSSVFESLQSLMIIFRRLAD | inactive
MRASCCKCVHICTYMSDRFD | 0.743 ± 0.22
DNDLQSTKSPLWGVHQANVR | inactive
WIPAMVYFEHNTS | inactive
LWDDMVIMFGPVICYGMASG | inactive
DTYFTVCSLWGPV | 0.999 ± 0.12
NTNVVSDYIHHAF | inactive
CYLSSTGVVYAGYVYI | inactive
LTQMCFTTSVFLRLAWVPFK | inactive
LVFMQRNIENISCCVTLYYQ | 2.51 ± 0.071
VCMEMLEHIMIWFNSVDT | inactive
LIISLGTVVIDVQSKKSLLL | 2.29 ± 0.079
SHKNGFFSQETR | inactive

Substance | amyloid nucleation score
WGWMSTIKIVG | inactive
ERSLFAYMYNNGR | inactive
PTPMNKKRHYHVDVASPFSL | inactive
KGMDMVI | inactive
TCMSVNVFRGYIIAW | inactive
LPAGVFTDSACVVVSANKAT | inactive
LQFPPNLSMLCKVTQPSNNW | inactive
IVREVGTA | inactive
SVSVVKSSEILSSMGPCGGT | inactive
LYGVNSCLIH | inactive
LFRFGI | -0.005 ± 0.22
EFGWQL | inactive
TRIGSTEKTEQSVWD | -0.198 ± 0.75
VIMSRCPVHIDMVPRDAQPL | inactive
VSWYCCTFAAFILWNSSWCI | inactive
TCCVIICEFLRRMVSAQSSL | 0.758 ± 0.28
VKNIWIDVTMGDQLFIPNFY | 2.36 ± 0.051
YRNVGHVCFDVEYPRVLFFA | inactive
SGCYNYFCGFLLKYSMYVSL | inactive
LNCNSESMLPLYNMVWRNRN | inactive
YCNMVWT | inactive
SYEAF | inactive
HTLLHEF | inactive

Substance | amyloid nucleation score
VLNFWGAVFPIIMLFYESVY | 2.03 ± 0.096
ASDGCSLRVAPVTQSPLWVS | inactive
NWWFPTFVRVFIYEVGLVLK | inactive
TRRPAQFVGPI | 0.645 ± 0.16
GDLGDVPGRWDWNKSWFVNY | inactive
KYLWDLATHNIFAGSKMMDN | inactive
DDRLCLGASENVWGFTVVRR | inactive
NAAGCSVSGCIG | inactive
RYLWVLNRIGPVWCSGFRVW | inactive
KGITYLNVRFKNRCPMVFGG | inactive
YSVLLLLDSYGAWSGAGGE | inactive
NWLDWYYPYLKMVIATGFND | inactive
RYYLFLVPSGVWGYVVLRDS | 0.656 ± 0.21
GHFLISIKKLL | inactive
VTRQLYVMGFVGHDEEGVVS | inactive
CISLSRL | inactive
NLFGC | inactive
LLTSLDPDYSSPWCYSVDIC | inactive
RLYQFCFDENSIQLFIYP | 2.35 ± 0.069
SMRLEFGLSMCVWVVDPSN | 0.706 ± 0.15
SMCPLYFINHAIAVDAMKFF | inactive
LDTDGSICCCPRAIAHLL | inactive
LWRDSGTITDGFECFSME | inactive

Substance | amyloid nucleation score
NTSISGSSM | inactive
GNMCDRTYLRMMLFHCRMPS | inactive
ITHFIMCPYYDYQRDGHWIT | inactive
CDTFVVNMSQFLSISTMAER | 0.66 ± 0.17
YERSRMSVWRNT | inactive
NVLFRMTRHAYSKLTWLFKR | inactive
IYMFVHIK | 1.68 ± 0.086
ARASVFAMGDTPLWSG | inactive
SRKWCQFYSCIIYTTNLLGR | 1.85 ± 0.069
AIFHGIRCSFMSSSLYTNDG | inactive
FVSWWNRSYVCVWIKLMNWR | inactive
HYCMRN | inactive
MDLYMTSWEFTVLSLEKMGR | inactive
LVGLGLGFCYLIKTFVTLLV | inactive
TIPYFQYDVFHKEDNWTGML | inactive
GRVFRCTPEVFIK | inactive
DLFLKLSCDSRI | inactive
CRKLYNISFLVLLTFFSHLF | inactive
NYRRGVRKPSFCL | inactive
VLSRSKRTGISNYLCNLCEI | inactive
IIPTD | inactive
MMLYALDRVAVTLGKSMLPA | inactive
